From publication PMC3865065 (Nature, 2013) come the findings set out here.

The assay deals with T1, extracellular Venus Flytrap (VFT) module of human GBR2 (human, UniProt O75899 42-466, carbohydrate at Asn404).
T1 sequence (looked up): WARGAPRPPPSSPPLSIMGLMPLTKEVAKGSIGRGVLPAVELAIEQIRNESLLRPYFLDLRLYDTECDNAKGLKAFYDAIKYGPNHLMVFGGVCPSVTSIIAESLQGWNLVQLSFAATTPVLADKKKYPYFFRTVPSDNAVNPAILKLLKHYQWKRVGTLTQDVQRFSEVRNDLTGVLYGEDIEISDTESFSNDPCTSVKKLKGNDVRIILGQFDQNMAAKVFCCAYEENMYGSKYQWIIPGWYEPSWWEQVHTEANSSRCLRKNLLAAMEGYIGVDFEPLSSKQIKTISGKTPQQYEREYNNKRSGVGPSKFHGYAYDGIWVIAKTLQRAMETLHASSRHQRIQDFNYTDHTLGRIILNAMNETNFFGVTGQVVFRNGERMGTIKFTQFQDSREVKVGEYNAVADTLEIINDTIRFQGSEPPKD
As to the kind of experiment: crystal structure.

B1: extracellular Venus Flytrap (VFT) module of human GBR1b (domain or fragment, UniProt Q9UBS5-2 48-459, looked up)
chain: SERRAVYIGALFPMSGGWPGGQACQPAVEMALEDVNSRRDILPDYELKLIHHDSKCDPGQATKYLYELLYNDPIKIILMPGCSSVSTLVAEAARMWNLIVLSYGSSSPALSNRQRFPTFFRTHPSATLHNPTRVKLFEKWGWKKIATIQQTTEVFTSTLDDLEERVKEAGIEITFRQSFFSDPAVPVKNLKRQDARIIVGLFYETEARKVFCEVYKERLFGKKYVWFLIGWYADNWFKIYDPSINCTVDEMTEAVEGHITTEIVMLNPANTRSISNMTSQEFVEKLTKRLKRHPEETGGFQEAPLAYDAIWALALALNKTSGGGGRSGVRLEDFNYNNQTITDQIYRAMNSSSFEGVSGHVVFDASGSRMAWTLIEQLQGGSYKKIGYYDSTKDDLSWSKTDKWIGGSPPAD
modifications: carbohydrate at Asn323 and Asn365 (seen in apo and antagonist-bound structures)
Take B1: the binding result was “binds”.
